Data as given in US12564623B2, “Methods and compositions for treating cancer” (The University of Chicago, priority 2017, dated 2026).

Assays:
[1] = Side effects in healthy non-tumor-bearing mice; type: in vivo, C57BL/6 mice; conditions: mammary fat pad, once a day for 5 consecutive days
Protocol: Human serum albumin (HSA; 11.6 μg)) or ELANE (11.6 μg) was injected into the mammary fat pad of healthy non-tumor-bearing C57BL/6 mice once a day for 5 consecutive days, and side effects were monitored. (a) Immunohistochemistry staining for apoptosis markers (TUNEL, cleaved CASP3 (c-CASP3), cleaved PARP (c-PARP)) 2 days after the final injection. (b) Delta body weight. (c) Spleen weight. (c) Blood ALT activity levels (a marker of liver function).
4 μM human albumin (Ctrl) or 4 μM ELANE was injected into the mammary fat pad of healthy non-tumor-bearing C57BL/6 mice once a day for 5 consecutive days, and side effects were monitored. Body weight, spleen weight, and blood ALT activity levels (a marker of liver function). Immunohistochemistry staining for apoptosis markers (cleaved CASP3 (c-CASP3), cleaved PARP (c-PARP)) 2 days after the final injection. Quantification of CD8+ effector cytotoxic T-cells (defined as CD3^+CD8^+CD62L^LOCD44^HI) in the blood 2 days after the final injection.

[2] = test system: Human or murine cancer cells; assay: Cancer cell viability and apoptosis (Calcein AM, Caspase 3/7, Annexin V); type: cell-based; conditions: 50 nM; 24 hrs viability, 6 hrs apoptosis
Protocol: (§1) Human PMN'S broadly and selectively kill cancer cells. Human peripheral blood neutrophils (PMN) were isolated from healthy donors and incubated in serum-free DMEM to collect their secreted factors (PMN-media). (A-B) Human or murine cancer cells (A) or healthy cells (b) were incubated with PMN media or control serum-free DMEM (Ctrl media) for 24 hours. Cell viability was assessed by Calcein AM staining. (C) Human or murine cancer cells were treated with PMN media or Ctrl media for 6 hours. Caspase 3/7 activity was examined by a luminescence activity assay, while cell surface Annexin V staining was assessed by flow cytometry. […] (FIG. 1).
(§2) (FIG. 6A) Cancer cells or healthy cells were treated with 50 nM purified native ELANE or control DMEM media (Ctrl) media for 24 hrs, and cell viability was assessed by Calcein AM staining. (FIG. 6B) Cancer cells were treated with 50 nM ELANE or Ctrl media for 6 hrs, and apoptosis was assessed by Caspase 3/7 luminesce activity assay or cell surface Annexin V staining by flow cytometry. *, p<0.05, Student's t-test.

healthy cells = assay: Healthy cell viability, Calcein AM; type: cell-based; conditions: 50 nM, 24 hrs
Protocol: as §1, §2

E0771 cancer cells = assay: Abscopal effect, bilateral E0771 tumors; type: in vivo, C57BL/6 mice
Protocol: (FIG. 19A) E0771 cancer cells were injected into left (0.5 million cells) and right (0.4 million cells) mammary fat pad of C57BL/6 mice. Once tumors on the left side reached ˜100 mm^3, ELANE (11.6 μg) or PMSF-inactivated ELANE (PMSF-ELANE) were injected intra-tumorally into the left tumor once/day for 5 days. n=10 mice/group. No action was performed on the right side of the tumor (abscopal side). Tumor volume on both sides were measured by calipers. (FIG. 19B) To eliminate the possibility that the abscopal effect was due to spillover of ELANE from the left to the right tumor, E0771 cancer cells were injected only into the left mammary fat pad of C57BL/6 mice, and mice were treated daily with ELANE (11.6 μg) or PMSF-ELANE into the right mammary fat pad. Tumor volume was measured by calipers.

Healthy non-cancer cells = assay: Killing program signaling in non-cancer cells; type: cell-based, Human and mouse; conditions: 50 nM
Protocol: (FIG. 11A) Healthy non-cancer cells were treated with ELANE (50 nM) for 4 hrs, and phosphorylated and total ERK, NFKB, and JNK were quantified by immunoblotting. Immunoblots for BMDMs are shown as an example. (FIG. 11B) Cells were treated with various doses of ELANE for 1 hr and mitochondrial ROS was measured by flow cytometry using CM-H2DCFDA dye. (FIG. 11C) Cells were treated with ELANE (50 nM) for 8 hrs, and full length and cleaved CASP3 (c-CASP3) and cleaved PARP (c-PARP) were quantified by immnoblotting. Immunoblots for BMDMs are shown as an example.
The ELANE-induced killing program is not observed in non-cancer cells. Human and mouse non-cancer cells were treated with ELANE and signaling pathways associated with cancer cell death were assessed. Cells were treated with ELANE (50 nM) for 4 hrs, and phosphorylated and total ERK, NFKB, and JNK were quantified by western blotting. Cells were treated with various doses of ELANE for 1 hr and mitochondrial ROS was measured by flow cytometry using CM-H2DCFDA dye. Cells were treated with ELANE (50 nM) for 8 hrs, and full length and cleaved CASP3 and PARP were quantified by western blotting.

B1: neutrophil elastase (protein, listed as Homo sapiens)
chain: MTLGRRLACLFLACVLPALLLGGTALASEIVGGRRARPHAWPFMVSLQLRGGHFCGATLIAPNFVMSAAHCVANVNVRAVRVVLGAHNLSRREPTRQVFAVQRIFENGYDPVNLLNDIVILQLNGSATINANVQVAQLPAQGRRLGNGVQCLAMGWGLLGRNRGIASVLQELNVTVVTSLCRRSNVCTLVRGRQAGVCFGDSGSPLVCNGLIHGIASFVRGGCASGLYPDAFAPVAQFVNWIDSIIQRSEDNPCPHPRDPDPASRTH
notes: purified native ELANE
[1]
  side effects (body weight, spleen weight, blood ALT, apoptosis markers): does not produce evident side-effects
[2]
  cancer cell killing and apoptosis: selectively kill cancer cells by inducing apoptosis
Healthy cells
  healthy cell viability: does not kill normal healthy cells
E0771 cancer cells; 11.6 μg daily
  tumor growth after injection into contralateral non-tumor bearing mammary fat pad: does not lower tumor growth
E0771 cancer cells; 11.6 μg into left tumor once/day for 5 days
  abscopal effect: induces an abscopal effect
Healthy non-cancer cells
  killing program in healthy non-cancer cells: does not induce a robust killing program in healthy non-cancer cells
